Residue numbers refer to the chain shown, from its start. In names and notes the source's numbering stands.
B1: F10 Y98A scFv (scFv, V domains shown)
VH: QVQLVQSGAEVKKPGSSVKVSCTSSEVTFSSFAISWVRQAPGQGLEWLGGISPMFGTPNYAQKFQGRVTITADQSTRTAYMDLRSLRSEDTAVYYCARSPSAICSGGTCVFDHWGQGTLVTVSS
VL: QPGLTQPPSVSKGLRQTATLTCTGNSNNVGNQGAAWLQQHQGHPPKLLSYRNNDRPSGISERFSASRSGNTASLTITGLQPEDEADYYCSTWDSSLSAVVFGGGTKLTVL
B2: CR6261 Y98A scFv (scFv, V domains shown)
VH: EVQLVESGAEVKKPGSSVKVSCKASGGPFRSYAISWVRQAPGQGPEWMGGIIPIFGTTKYAPKFQGRVTITADDFAGTVYMELSSLRSEDTAMYYCAKHMGAQVRETMDVWGKGTTVTVSS
VL: QSVLTQPPSVSAAPGQKVTISCSGSSSNIGNDYVSWYQQLPGTAPKLLIYDNNKRPSGIPDRFSGSKSGTSATLGITGLQTGDEANYYCATWDRRPTAYVVFGGGTKLTVL
B3: CR6261 scFv (wild type) (scFv, V domains shown)
VH: B2 VH with A102Y
VL: B2 VL
B4: CR6261 F54A scFv (scFv, V domains shown)
VH: B2 VH with F55A, A102Y
VL: B2 VL
B5: F10 scFv (wild type) (scFv, V domains shown)
VH: B1 VH with A102Y
VL: B1 VL
B6: F10 CDR-H2 variant ISPIFGTA (germline CDR-H2 with Ser52 restored) scFv (scFv, V domains shown)
VH: B1 VH with M54I, P58A, A102Y
VL: B1 VL
B7: A66 germline CDR-H2 variant (IIPIFGTA) scFv (scFv, V domains shown)
VH: QVQLVQSGAEVKKPGSSVKVSCKASGGPFSMTAFTWLRQAPGQGLEWMGGIIPIFGTAKYAQKFQGRVTITADESTNTANMELTSLKSEDTAVYYCARTLSSYQPNNDAFAIWGQGTMVTVSS
VL: EIVLTQSPATLSLSPGERATLSCRASQSVSSYLAWYQQKPGQAPRLLIYDASNRATGIPARFSGSGSGTDFTLTISRLEPEDFAVYFCQQYGSSPQFGQGTRLEIK
B8: A66 CDR-H2 variant ISPIFGTA (germline CDR-H2 with Ser52 restored) scFv (scFv, V domains shown)
VH: B7 VH with I52S
VL: B7 VL
B9: A66 CDR-H2 variant IIPIFRTA (germline CDR-H2 with Arg55 restored) scFv (scFv, V domains shown)
VH: B7 VH with G56R
VL: B7 VL
B10: A66 scFv (wild type) (scFv, V domains shown)
VH: B7 VH with I52S, G56R, A58P
VL: B7 VL
B11: F10 CDR-H2 variant IIPMFGTA (germline CDR-H2 with Met53 restored) scFv (scFv, V domains shown)
VH: B1 VH with S52I, P58A, A102Y
VL: B1 VL

The binders below were run against T1, H5VN04 trimeric HA (recombinant hemagglutinin) (influenza A virus (H5VN04), UniProt Q6DQ33) (assay: SPR).
B1 was tested, and the koff was 0.097 s⁻¹. In the case of B2, the koff is reported as 0.027 s⁻¹. With B3 the koff was 0.00012 s⁻¹. B4 gave a koff of 0.0073 s⁻¹. For B5, the koff was 3.5e-05 s⁻¹.

Target: T1, H5VN04 trimeric HA (recombinant …)
Test: SPR
Remark: another data set of the same source
In the case of B6, the koff is reported as 0.00025 s⁻¹. B7 gave a koff of 0.0049 s⁻¹. In the case of B8, the koff is reported as 0.00023 s⁻¹. B9 was tested, and the koff was 0.0034 s⁻¹. In the case of B10, the koff is reported as 5e-05 s⁻¹.

Target: T1, H5VN04 trimeric HA (recombinant …)
Test: SPR
Remark: another data set of the same source
B1 was tested, and the Kd was 350 nM. Work on B2 yielded a Kd of 1600 nM. In the case of B3, the Kd is reported as 0.34 nM. Binder B4 has a Kd of 290 nM. B5 was tested, and the Kd was 0.1 nM.

Target: T1, H5VN04 trimeric HA (recombinant …)
Test: SPR
Remark: another data set of the same source
B6 gave a Kd of 1.2 nM. In the case of B7, the Kd is reported as 4.2 nM. Work on B8 yielded a Kd of 1.1 nM. Binder B9 has a Kd of 3.2 nM. B11 showed a Kd of 270 nM. In the case of B10, the Kd is reported as 0.11 nM.

— article PMC4006906 (2014)
